Experiment [1] concerns the target Wild type CD117 expressed on cells (M07e cells, unedited human CD34+ HSPCs) (human, UniProt P10721 26-976). Kind of experiment: cell-based or functional assay.
The target of experiment [2] is T1, Wild type CD117 purified protein (human, UniProt P10721 26-520, limits assumed).
T1 construct: Protein used in BLI/kinetics and cryo-EM; also called wt CD117; Wt CD117
Kind of experiment: binding kinetics, FIGS. 45A-45K.

Experiment [3] addresses T2, CC128 variant of CD117 (Y259C + N260D) purified protein (human, UniProt P10721 26-520, limits assumed).
T2 construct: also called CC128-edited CD117 as purified protein
In words: binding kinetics, FIGS. 45A-45K.

The target of experiment [4] is CC200 variant of CD117 (S261G) purified protein (human, UniProt P10721 26-520, limits assumed). Kind of experiment: binding kinetics, FIGS. 45A-45K.
Another experiment has as its target T3, Cyno CD117 (cynomolgus, UniProt F6V858 26-520 (rhesus entry)).
T3 construct: also called cynomolgus CD117
Kind of experiment: KD, method not stated (Table 8B).

Experiment [5] concerns the target T1, Wild type CD117 purified protein. In words: KD, method not stated (Table 8B).
For experiment [6] the target is unchanged. Kind of experiment: summary Table 75 (repeats Table 71).
Experiment [7] has as its target T4, CC128 variant of CD117 (Y259C + N260D) expressed on cells (M07e, CD34+ HSPCs) (human, UniProt P10721 26-976).
T4 construct: Edited cell pools also hold minor alleles (Y259C alone, N260D alone); also called CC128-edited CD117; CC128-M07e
In words: binding to edited M07e cells (Table 8B).

Experiment [8] concerns the target T1, Wild type CD117 purified protein. In words: monovalent KD, CD117 titrated (FIGS. 73A-73E).

Numbering of substitutions follows the chain as printed.

T2 sequence (P10721 26-520 Y259C/N260D limits assumed): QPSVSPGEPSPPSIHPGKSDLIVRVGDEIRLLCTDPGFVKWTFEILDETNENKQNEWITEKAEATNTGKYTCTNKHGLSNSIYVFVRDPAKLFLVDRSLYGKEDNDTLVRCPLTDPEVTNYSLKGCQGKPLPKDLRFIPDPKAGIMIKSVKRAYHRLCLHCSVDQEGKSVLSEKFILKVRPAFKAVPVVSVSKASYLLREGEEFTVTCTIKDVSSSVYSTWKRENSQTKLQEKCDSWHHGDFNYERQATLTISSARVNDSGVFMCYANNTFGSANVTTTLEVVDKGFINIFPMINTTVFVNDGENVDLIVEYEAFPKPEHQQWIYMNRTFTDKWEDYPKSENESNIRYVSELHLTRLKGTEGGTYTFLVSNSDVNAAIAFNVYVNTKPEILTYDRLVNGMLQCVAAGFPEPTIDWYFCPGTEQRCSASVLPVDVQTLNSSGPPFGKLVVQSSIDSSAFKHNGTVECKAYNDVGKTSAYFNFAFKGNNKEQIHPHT
T3 sequence (chain, as listed by the source): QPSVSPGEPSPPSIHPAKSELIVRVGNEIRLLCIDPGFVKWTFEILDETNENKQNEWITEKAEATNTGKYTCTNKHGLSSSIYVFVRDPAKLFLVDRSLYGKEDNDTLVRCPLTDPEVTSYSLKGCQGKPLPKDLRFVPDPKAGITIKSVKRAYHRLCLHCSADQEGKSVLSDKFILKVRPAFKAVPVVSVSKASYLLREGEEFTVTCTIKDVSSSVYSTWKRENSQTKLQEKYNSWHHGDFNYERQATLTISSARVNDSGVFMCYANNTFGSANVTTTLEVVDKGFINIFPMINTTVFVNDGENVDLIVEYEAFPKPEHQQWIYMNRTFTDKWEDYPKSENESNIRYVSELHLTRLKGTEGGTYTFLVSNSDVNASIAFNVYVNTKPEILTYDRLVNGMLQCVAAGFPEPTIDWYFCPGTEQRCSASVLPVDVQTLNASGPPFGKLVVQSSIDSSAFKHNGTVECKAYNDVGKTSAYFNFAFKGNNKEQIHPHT
Chain of CC200 variant of CD117 (S261G) purified protein (P10721 26-520 S261G limits assumed): as the sequence (P10721 26-520 Y259C/N260D limits assumed) above, with C234Y, D235N, S236G counted along it
T4 sequence (P10721 26-976 Y259C/N260D limits assumed): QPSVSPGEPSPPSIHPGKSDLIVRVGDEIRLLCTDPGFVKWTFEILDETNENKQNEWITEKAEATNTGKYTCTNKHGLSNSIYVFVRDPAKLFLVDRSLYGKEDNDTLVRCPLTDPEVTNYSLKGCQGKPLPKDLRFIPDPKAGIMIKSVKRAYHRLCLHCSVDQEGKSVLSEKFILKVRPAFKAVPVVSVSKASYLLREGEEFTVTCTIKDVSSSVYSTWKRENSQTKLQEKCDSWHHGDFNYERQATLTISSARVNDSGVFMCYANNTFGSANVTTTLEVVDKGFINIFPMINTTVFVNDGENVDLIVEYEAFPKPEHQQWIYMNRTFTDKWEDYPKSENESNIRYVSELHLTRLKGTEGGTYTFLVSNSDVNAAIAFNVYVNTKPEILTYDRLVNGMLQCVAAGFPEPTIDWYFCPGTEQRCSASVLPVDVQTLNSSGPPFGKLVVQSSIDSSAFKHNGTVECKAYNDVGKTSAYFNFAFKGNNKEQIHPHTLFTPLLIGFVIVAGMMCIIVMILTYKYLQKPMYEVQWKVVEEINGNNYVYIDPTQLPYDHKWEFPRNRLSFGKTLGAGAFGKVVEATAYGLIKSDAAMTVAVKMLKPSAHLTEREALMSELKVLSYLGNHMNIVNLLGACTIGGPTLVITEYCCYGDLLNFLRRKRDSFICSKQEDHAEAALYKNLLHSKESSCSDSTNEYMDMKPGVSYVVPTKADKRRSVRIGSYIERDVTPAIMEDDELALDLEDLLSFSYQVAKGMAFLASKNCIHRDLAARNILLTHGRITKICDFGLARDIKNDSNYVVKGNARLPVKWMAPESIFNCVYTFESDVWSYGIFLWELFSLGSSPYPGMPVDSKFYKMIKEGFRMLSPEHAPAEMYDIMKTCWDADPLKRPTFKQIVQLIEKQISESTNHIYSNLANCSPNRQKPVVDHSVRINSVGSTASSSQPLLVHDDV
T1 sequence (P10721 26-520 limits assumed): as the sequence (P10721 26-520 Y259C/N260D limits assumed) above, with C234Y, D235N counted along it
Chain of Wild type CD117 expressed on cells (M07e cells, unedited human CD34+ HSPCs) (P10721 26-976 limits assumed): as the sequence (P10721 26-976 Y259C/N260D limits assumed) above, with C234Y, D235N counted along it

B1: ABTx167 (antibody, human IgG1, kappa, L234A L235A)
heavy: QVQLVQSGAAVKKPGESLKISCKGSGYRFTSYWIGWVRQMPGKGLEWMGIIYPGDSDTRYSPSFQGQVTISAGKSISTAYLQWSSLKASDTAMYYCARHGRGYNGYEGAFDIWGQGTMVTVSSASTKGPSVFPLAPSSKSTSGGTAALGCLVKDYFPEPVTVSWNSGALTSGVHTFPAVLQSSGLYSLSSVVTVPSSSLGTQTYICNVNHKPSNTKVDKKVEPKSCDKTHTCPPCPAPEAAGGPSVFLFPPKPKDTLYITREPEVTCVVVAVSHEDPEVKFNWYVDGVEVHNAKTKPREEQYNSTYRVVSVLTVLHQDWLNGKEYKCKVSNKALPAPIEKTISKAKGQPREPQVYTLPPSRDELTKNQVSLTCLVKGFYPSDIAVEWESNGQPENNYKTTPPVLDSDGSFFLYSKLTVDKSRWQQGNVFSCSVMHEALHNHYTQKSLSLSPG
light: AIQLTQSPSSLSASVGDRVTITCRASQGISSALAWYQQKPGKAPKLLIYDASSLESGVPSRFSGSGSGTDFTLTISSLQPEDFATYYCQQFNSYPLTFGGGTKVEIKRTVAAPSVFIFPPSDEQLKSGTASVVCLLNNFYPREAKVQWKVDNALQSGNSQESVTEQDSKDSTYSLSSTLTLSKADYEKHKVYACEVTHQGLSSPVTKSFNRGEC
As to B1, in experiment [1], the “IC50 [M], viability of unedited HSCs with 100 ng/mL SCF, 5-7 days” value was determined as 2.56e-07 M.

B2: ABTx052 variant VL_N92R (antibody, human IgG1, V domains shown)
VH: QVQLVQSGAAVKKPGESLKISCKGSGYRFTSYWIGWVRQMPGKGLEWMGIIYPGDSDTRYSPSFQGQVTISAGKSISTAYLQWSSLKASDTAMYYCARHGRGYNGYEGAFDIWGQGTMVTVSS
VL: AIQLTQSPSSLSASVGDRVTITCRASQGISSALAWYQQKPGKAPKLLIYDASSLESGVPSRFSGSGSGTDFTLTISSLQPEDFATYYCQQFRSYPLTFGGGTKVEIK
In [2], B2 showed a Kd of 0.683 nM, a koff of 0.000434 s⁻¹ and a kon of 635000 M⁻¹ s⁻¹. Further, in experiment [3], the binding result was “no binding”. For the same molecule, the binding result in [4] is on record as “no binding”.

B3: ABTx052 variant VL_Y94S (antibody, human IgG1, V domains shown)
VH: B2 VH
VL: B2 VL with R92N, Y94S
In experiment [2], B3 returned an equilibrium dissociation constant (Kd) of 3.38 nM, a koff of 0.00218 s⁻¹ and a kon of 643000 M⁻¹ s⁻¹. The binding result in experiment [3] was “no binding”. For the same molecule, the binding result in experiment [4] was “no binding”.

B4: ABTx052 variant VL_Y94H (antibody, human IgG1, V domains shown)
VH: B2 VH
VL: B2 VL with R92N, Y94H
On to B4, for which, in experiment [2], binding was put at a Kd of 3.16 nM, the koff amounted to 0.00178 s⁻¹ and the kon is 563000 M⁻¹ s⁻¹. Further, the binding result in experiment [3] was “no binding”. The binding result in experiment [4] was “no binding”.

B5: ABTx052 variant VL_N92Y (antibody, human IgG1, V domains shown)
VH: B2 VH
VL: B2 VL with R92Y
As to B5, in [2], binding was put at a Kd of 0.841 nM, the koff came out at 0.000635 s⁻¹ and the kon is 755000 M⁻¹ s⁻¹. The binding result in experiment [3] is recorded as “no binding”. For the same molecule, the binding result in experiment [4] is reported as “no binding”.

B6: ABTx025 (antibody, human IgG1, kappa, V domains shown)
VH: EVQLVESGGGLVQPGRSLRLSCAASGFTFDDYAMHWVRQAPGKGLEWVSGISWNSGTIGYADSVKGRFTNSRDNAKNSLYLEMNSLRAEDTALYYCAKDSPPGYCSSASCYGAFDIWGQGTMVTVSS
VL: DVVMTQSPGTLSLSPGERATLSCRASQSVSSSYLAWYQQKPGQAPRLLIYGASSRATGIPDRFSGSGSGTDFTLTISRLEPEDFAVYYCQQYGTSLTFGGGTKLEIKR
Turning to B6, the Kd came out at 5.31 nM with Cyno CD117, 1.25 nM in experiment [5], 1470 nM in experiment [6] and 1470 nM in [8]. The binding result in experiment [7] was “no binding”. In experiment [8], this molecule gave a koff of 0.0509 s⁻¹. In experiment [8], this molecule displayed a kon of 37200 M⁻¹ s⁻¹.

B7: ABTx062 (antibody, human IgG1, kappa, V domains shown)
VH: B6 VH with A23S, N70I, E82Q, M122T
VL: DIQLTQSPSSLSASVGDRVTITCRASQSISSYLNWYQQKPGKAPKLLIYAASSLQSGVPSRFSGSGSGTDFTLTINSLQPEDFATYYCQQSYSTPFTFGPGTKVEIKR
As for B7, the Kd in the experiment with Cyno CD117 came to 31.8 nM; in [5], 18 nM. Moreover, the binding result in [7] is “no binding”.

B8: ABTx061 (antibody, human IgG1, kappa, V domains shown)
VH: B6 VH with T57S, N70I, E82Q, S100T, P102L, S107T, A108T
VL: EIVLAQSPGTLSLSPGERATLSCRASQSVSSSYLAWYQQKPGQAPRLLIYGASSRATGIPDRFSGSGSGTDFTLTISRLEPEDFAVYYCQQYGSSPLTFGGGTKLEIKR
Regarding B8, the equilibrium dissociation constant (Kd) is 29.5 nM with Cyno CD117 and 18.6 nM in [5]. Besides, the binding result in experiment [7] is “no binding”.

The Kd is the concentration at which binding is half-saturated. For orientation: koff means the first-order rate constant of dissociation. The low end stands for slow dissociation, the high end for fast dissociation. A word on the kon: it is a measure of how fast the partners come together. Lower therefore signals slower complex formation.

For the origin of these results see patent US20260166085A1 (BEAM THERAPEUTICS, published 2026).
